This is an account of results in PMC6829326 (International Journal of Molecular Sciences, 2019).

B1: C-8-2 scFv displayed on phage (scFv, V domains shown)
VH: EVQLVQSGAEVKKPGSSVKVSCKASGGTESSEAISWVRQAPGQGLEWMGGIIPFFGTANYAQKFQGRVTITADESTSTAYMELSSLRSEDTAVYYCARDGRKDYYGSGSYLHYYGMDVWGQGTTVTVSS
VL: ELVMTQSPLSLPVTPGEPASISCRSSQSLLHSNGYNYLDWYLQRPGQSPQLLIYLGSNRASGVPDRFSGSGSGTDFTLKIGRVEAEDVGIYYCMQALQTPLTFGGGTKVEIK
notes: also called C-8-2 clone
B2: C-8-2-4B-10D scFv displayed on phage (scFv, V domains shown)
VH: EVQLVQSGAEVKKPGSSVKVSCKASDGKEKREAISWVRQAPGQGLEWMGGIIPFFDKANYAQKFQGRVTITADESTSTAYMELSSLRSEDTAVYYCARDGRKDYYGSGSYLHYYGMDVWGQGTTVTVSS
VL: ELVMTQSPLSLPVTPGEPASISCRSSQSLVHSNGYNYLDWYLQRPGQSPQLLIYLGSNRASGVPDRFSGSGSGTDFTLKIGRVEAEDVGIYYCMQAVQTPLTFGGGTKVEIK
B3: C-8-2-4B scFv displayed on phage (scFv, V domains shown)
VH: EVQLVQSGAEVKKPGSSVKVSCKASDGKEKREAISWVRQAPGQGLEWMGGIIPFFDKANYAQKFQGRVTITADESTSTAYMELSSLRSEDTAVYYCARDGRKDYYGSGSYLHYYGMDVWGQGTTVTVSS
VL: ELVMTQSPLSLPVTPGEPASISCRSSQSLLHSNGYNYLDWYLQRPGQSPQLLIYLGSNRASGVPDRFSGSGSGTDFTLKIGRVEAEDVGIYYCMQALQTPLTFGGGTKVEIK
notes: also called clone C-8-2-4B

The target in this assay is T1, recombinant MERS-CoV S RBD protein (MERS-CoV, strain ; EMC/2012 …, UniProt K0BRG7).
T1 construct: source: bought: Sino Biological Inc
In words: ELISA. Particulars: one partner purified. In general terms: An ELISA detects its analyte on a solid surface through an enzyme-linked reagent.
With B1, the binding result is “binds”.
Turning to B2, the binding result is “binds”.
Then B3, with “binds”.
